Measured values published in the supplement of paper PMC9170038.

Test system: K4 kissing-loop RNA reporter
Test: apparent KD of K4 kissing-loop reporter; higher = weaker reporter binding
Conditions: Eterna round: R107
Method: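 RNA-MaP round R107: designed RNA switches with theophylline, tryptophan, arginine or FMN aptamers are transcribed on-chip within common flanks. They are titrated with a labelled K4 kissing-loop RNA reporter in RNA-MaP buffer (100 mM Tris pH 7.5, 80 mM KCl, 4 mM MgCl2), without ligand or with the indicated ligand. Median apparent KD per design.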

[1] = input ligand: theophylline 20 uM
[2] = input ligand: tryptophan 2.4 mM
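Also: bound reporter read as fluorescence of individual clusters on recovered sequencing chips by microscopy, with normalized cluster intensities fitted with a binding model.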

| Sequence | apparent KD of K4 kissing-loop reporter (input ligand: FMN 200 uM) | apparent KD of K4 kissing-loop reporter (input ligand: arginine 13.2 mM) | apparent KD of K4 kissing-loop reporter (input ligand: none) | apparent KD of K4 kissing-loop reporter [1] | apparent KD of K4 kissing-loop reporter [2] |
| --- | --- | --- | --- | --- | --- |
| UUGGAAAUCAGAAGGAGCGUCUAAAAUGAAGGAACCAGUGAUGUUGGUUUUAUUUAAUGAAGACAGGUAGGUCGCUGAAUUUUUA [Same State Arginie B GF 18] | 91.4 nM | 101 nM | 94.4 nM | 116 nM | 91.5 nM |
| UUGGCAGUGAUGUUGCCAGAGCUCACCGAAGGAGCGCGUGAAAACGCAGGUAGGUCGCGGUAGCGGAGUGAUUCUCCGCGAGGGC [Same State Arginine A GF 21] | 44.5 nM | 71.7 nM | 77.2 nM | 80.3 nM | 87.9 nM |
| UUGGCCCGGCCGGAAGGCCGGGCCUGCGAGCGAGGACCGGUACGGCCGCCACUCGGCGCAGUGAUGUUGCGUGGCCGCAAGGCCG [#2 Exclusion - Tryptophan A Attempt #1 (HarryS)] | 370 nM | 337 nM | 439 nM | 581 nM | 874 nM |
| UUGGCCGGACGGGAUACCAGUCAAAUCGUGUGCUUGGGAUGUCUAAGAGCCAGUGAUGUUGGCCCUUGGCAGCCCUCCCAGCUUG [Esleaqu] | 111 nM | 105 nM | 110 nM | 102 nM | 93.5 nM |
| UUGUUUGGUUGAGAGGUUGGGCGAAAUGAUACCAGUAUAUAAGAAUACCCUUGGCAGCAUAAGAAAGAUAUAGUGAUGUUGUAUA [SSTheophA.L] | 597 nM | 320 nM | 431 nM | 560 nM | 411 nM |
| UUGUUUGGUUGAGAGGUUGGGCGAGAUGAUACCAGUAGAGAAGAGUACCCUUGGCAGCAUAAGAAAGAUAUAGUGAUGUUGUAUA [SSTheophA.P] | 422 nM | 362 nM | 546 nM | 566 nM | 396 nM |
| UUGUUUGGUUGAGAGGUUGGGCGAGAUGAUACCAGUAUAGUAUUGUACCCUUGGCAGCAUAGGAGAGAUAUAGUGAUGUUGUAUG [SSTheophA.W] | 419 nM | 320 nM | 457 nM | 416 nM | 328 nM |
| UUUAAAUAUAGUGAUGUUAUAUAACAAUGACGAGGACCGGUACGGCCGCCACUCGAGAGAGAUAAUGGUCGUUAGAAUCUAACGC [AstrosSSTryA#5] | 760 nM | 778 nM | 685 nM | 963 nM | 484 nM |
| UUUAACGAGUGAUGUUCGAAGAGUAAUGGUGAGGAUAUCGAUUUUUCGAGAAGGCGCCUCGAAGUGAUACGAAAGUAUCGCUUCG [FMN A 6] | 239 nM | 247 nM | 286 nM | 253 nM | 255 nM |
| UUUAUAAGGUCGGCCGCCACUGGAUUUAUGUUUGUUUCGUCUGGAUCAAAGUGAUGUUUUGAGUCCAGGACCGGGACAUUUGUUA [whbob_Ex_Tryp_B_w39] | 86.6 nM | 76.5 nM | 79.3 nM | 75.6 nM | 90.5 nM |
| UUUAUAAUGUCGGCCGCCACUGGAUUAAUAUUUGUAUAAUCUAGUUCUAAGUGAUGUUUAGAGUCCAGGACCGGGACAUUUGUUA [#09 K4 Tryptophan B Exclusion] | 395 nM | 282 nM | 300 nM | 311 nM | 212 nM |
| UUUAUAUAGUCGGCCGCCACUGAUUUUUUUAUAUGUUUAUGUUUAUACGAGUGAUGUUCGAUAUACAGGACCGGGACUUUUGUUA [JR_SSTryptoB_Sub018] | 186 nM | 237 nM | 238 nM | 294 nM | 180 nM |
| UUUAUUAAGACGGCCGCCACUGAUUCAGAGUGAUGUUCUGAUAUUUUUUUAUAUAAUAAUAACAGCAGGACCGGGUCAAUUAUUA [JR_SSTryptoB_Sub013] | 225 nM | 237 nM | 233 nM | 272 nM | 192 nM |
| UUUAUUAAGACGGCCGCCACUGAUUCAUAGUGAUGUUAUGAUAUAAUUUUAGUGAUGUGCAUUAGCAGGACCGGGUCAAUUAUUA [#28 K4 Tryptophan B Exclusion] | 125 nM | 108 nM | 120 nM | 94.7 nM | 101 nM |
| UUUCAAAUUUAAGGAUAUUAGAUACCAGGAAAGGAGUGAUGUUCCGUGCUACGAUAGUGCUAGGGCUAAGAAGGUAAGUCUCGAG [theeternabot_sameState_KL_FMN_B_37] | 79.1 nM | 87.2 nM | 85.6 nM | 89.6 nM | 59.1 nM |
| UUUCGUAGAAGUGAUACCAGACUGGAAAGUGAUGUUUUCCAAUUAUUUAAAUCCUUAUCUGUCCCUUGGCAGCACAGUUUAUUUA [JR_Nu_ExcTheophyB_Sub027] | 71.8 nM | 81.3 nM | 75.5 nM | 97.6 nM | 70 nM |
| UUUCGUCUCUGAGGAUAUCAGAAUAGAGUGAUGUUCUAUCAAAGCCCAGUGAUGUUGGAUGCUAUCUGAGAAGGCAGUGGGCGAG [Same State FMN B GF 11] | 196 nM | 183 nM | 249 nM | 185 nM | 219 nM |
| UUUCUACCGGGAAGGAGCGUGAAUGAUAAUGGAUAUAGUGAUGUUAUAUAUACGAACGAAUCGCAGGUAGGUCGCCCGGAUCACU [SSArgB.U] | 655 nM | 859 nM | 1470 nM | 1480 nM | 1090 nM |
| UUUGGAAGCGGUGUUGAUUAGGGAGCGGAAGGAGCGCCGAUUAUGGCAGGUAGGUCGCCGGAAUGUAGUGAUGUUGCAUAGAGGU [ExArgA.X] | 185 nM | 130 nM | 240 nM | 273 nM | 128 nM |
| UUUGGUUUCUCGGCCGCCACUCGUUGGUUAUGGGCCUCAGGGAUAUAGUGAUGUUAUGUAAAGAAGAGGACCGGGAGAAGGAAGG [ExTryptoB.Do] | 493 nM | 395 nM | 225 nM | 283 nM | 380 nM |
| UUUGGUUUCUCGGCCGCCACUCGUUGGUUAUGGGCUUCAGGGAUAUAGUGAUGUUAUGUAUAGAAGAGGACCGGGAGAAGGAAGG [ExTryptoB.Dq] | 195 nM | 245 nM | 288 nM | 186 nM | 269 nM |
| UUUGGUUUCUCGGCCGCCACUCGUUGUCUAUGGGCUUCAGGGAUAUAGUGAUGUUAUGUAUAGAAGAGGACCGGGAGAAGGUUUU [ExTryptoB.Dv] | 427 nM | 77.9 nM | 683 nM | 42.3 nM | 161 nM |
